The results in this text go back to the nanobody polyreactivity screen of Harvey et al. (2022).

The nature of this data set: yeast display, Sf9 membrane polyspecificity reagent, FACS + sequencing; frameworks hold sequencing errors. Summed up:
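Nanobodies from a synthetic yeast display library (Saccharomyces cerevisiae BJ5465), induced 36–48 hours with galactose, were stained 1 hour at 4 °C with 10% biotinylated, detergent-solubilized Sf9 membrane reagent, enriched on streptavidin microbeads, then FACS-sorted. Anti-HA (expression) and streptavidin (reagent binding) fluorescence set low and high (top ~1%) gates. Polyreactivity labels come from the gate of origin. Genes were colony-PCR amplified, MiSeq 2 × 250 sequenced and filtered by CDR length.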
Take “QDPLVESGGGLVQAGGSLRLSCAASGRLFYRNPMGWYRQAPGKERELVAAISSSGGGTYADSVKGRFTISRDNAKNTVYLQMNSLKPEDTAVYYCAAGPFSYSHYGRKFYYWGQGTQVTVSS”: the “polyreactivity (PSR sort gate)” value is recorded as “high polyreactivity”.
In the case of “QDPLVESGGLLVQAGGSLRLSCAASGFTFSRYAMGWYRQAPGKERELVAVIDNSGGTTYYADSVKGRFTISRDNAKNTVYLQMNSLKPEDTAVYYCAAKRIPRYYSASDYWGQGTQVTVSS”, the “polyreactivity (PSR sort gate)” value is “low polyreactivity”.
For “QDQDVESGGGLVQARGSLPLSCAASGSIFAWYAMGWYRQSPGKERELLAVITSSDGSTHYADSVKGRFTISRDNAKNSVYLQMISLKPEDTAVYYCAAFRSLRESKGYWWEYYSWGQGTQVTVSS”, the “polyreactivity (PSR sort gate)” value is “low polyreactivity”.
Consider “QDQHVDSGGGLVQAGGSLRLRCAASGFTIADYAMGWYRQAPGKERELVAAINRSGGRTYYADSVKGRFTISRDYAKNTVYLQMNMLKPEDTAVYYCAAYGITYHNSDSWGQGTQVTVSS”, for which the “polyreactivity (PSR sort gate)” value is “high polyreactivity”.
In the case of “QDQHVESGGCLVQEGGSLRLSCAASGRTFSSNVMGWYRQAPGKVRELVASITWSGGTTYYADSVKGRFTISRDNAKNTVYLQMNSLKPEDTAVYYCNAADERSQGWVGYDHWGQCTQVTVSS”, the “polyreactivity (PSR sort gate)” value was “low polyreactivity”.
Regarding “QDQHVESGGGLVQAGGRLSLICAASAFISVRNAMGWYRQAPGKERELVAAISSGDTTDYADSLKGRFTISRDNAKNTVYLLMNSLKPEDTAVYYCAAVYSGRYYYWGQGTQVTVSS”, the “polyreactivity (PSR sort gate)” value is “low polyreactivity”.
In the case of “QDQHVESGGGLVQAGGSLRLICAASGINFDYYNMGWYRQAPGKERELVATISSGGTSTFYADSVKGRFTISRDNAKNTVYLQMNSLKPDDSAVYYCAKDRPGWVHRRPSGGFDYWGQGTQVTVSS”, the “polyreactivity (PSR sort gate)” value is recorded as “low polyreactivity”.
Consider “QDQHVESGGGLVQAGGSLRLICAASGLIFGYYAIGWYRLAPGKERELVAAITSDSSTNYADSVKGRFTISRDNAKNTVYLHMNSLKPVDTAVYYCAADIMTRRGYYYWGHGTQVTVSS”, for which the “polyreactivity (PSR sort gate)” value is given as “high polyreactivity”.
Consider “QDQHVESGGGLVQAGGSLRLICDASGGIFGTNDMGWYRQAPGKERELVAAITSDSGATYYADSVKGRFTISRDNAKNTVYLQMNSLKPEDTAVYYCAAEDGPWFYRYGYWGQGTQVTVSS”, for which the “polyreactivity (PSR sort gate)” value is recorded as “low polyreactivity”.
On to “QDQHVESGGGLVQAGGSLRLSCAASGFTFDFYAMGWYRQAPGKERELVAAISKNDGTTYYADSVKGRFTISRDNAKNTVYLQMNSLKPEDTGVYYCAAESGYPVYTYVSSGDYWGQGTQVTVSS”, for which the “polyreactivity (PSR sort gate)” value is “low polyreactivity”.
Consider “QDQHVESGGGLVQAGGSLRLSCAASGGNYAGYAMGWYRQAAGKARELVAAISWRGTSTYYADSVKGRFTISRDNAKNTVYLELNSLKPEDTAVYYCAAEAASWWGYGYWGQGTQVTVSS”, for which the “polyreactivity (PSR sort gate)” value is listed as “high polyreactivity”.
With “QDQHVESGGGLVQAGGSLRLSCAASGILYNYYAMGWYRQAHGKERELVAAISASGGSTYYADSVKGRFTISRDNAKNTVYLQMYSLKPEDTAVYYCNAAVLYRQYGRGDYLGQGTQVTVSS”, the “polyreactivity (PSR sort gate)” value is “low polyreactivity”.
As for “QDQHVESGGGLVQAGGSLRLSCAASGRISKRNVMGWYRPAPGKERELVACISSTGSTSYADSVKGRFTISRDNAKYTVYLQMNSLNPEDTAVYYCAARGQATYNWGQGTQVTVSS”, the “polyreactivity (PSR sort gate)” value is “high polyreactivity”.
“QDQHVESGGGLVQAGGSLRLSCAASGRTFRLYAMGWYRQAPGKERELVAAITRGGRTNYADSVKGRFTISRDNAKNTVYLQMNSLKPEDTAVYYCAARYVERHTDYYYWGQGTQVTVSS”: the “polyreactivity (PSR sort gate)” value is given as “low polyreactivity”.
Regarding “QDQHVESGGGLVQAGGSLRLSCAASGRTFSYYTMGWYRQAPGKERELVAAISRRGGNTYYADSVKGRFTISRDNAKNTVYLQMNSLKPADTAVYYCAALSYAKHYDPSGYDYWGQGTQVTVSS”, the “polyreactivity (PSR sort gate)” value is recorded as “high polyreactivity”.
For the sequence “QDQHVESGGGLVQAGGSLRLSCAASGSIFWYYAMGWYRQEPGKERELVAAISRSGGSTYYADSVKGRFTISRDNAKNTVYLEMNSLKPEDTAVYYCAAGYSSLRRFGVYYWGQGTQVTVSS”, the “polyreactivity (PSR sort gate)” value is reported as “high polyreactivity”.
For “QDQHVESGGGLVQAGGSLRLSCAASGSTFHLYAMGWYRQAPGKERELVATITWRTGSTYYADSVKGRFTISRDNAKNTVYLQMNSLKPEDTAVYYCAAYPYRYSWLDYWGQGTQVTVSS” the value was “high polyreactivity”; for “QDQHVESGGGLVQAGGSLRLSCAASGSTFRYYAMGWYRQRPGKESEMVAAITRRGGSTYYADSVKGRFTISRDNAKYTVYLQMNSLKQADTAVYYCAAYRIYYSGYGYYYYWGQGTQVTVSS”, “high polyreactivity”; for “QDQHVESGGGLVQAGGSLRLSCAASGSTFVYYAMGWYRQAPGKERELVAVITWSGGRTYYADSVKGRFTISRDNAKNTVYLQMNSLKPEDTAGYYCAADPLSGYDYWGQGTQVTVSS”, “low polyreactivity”.
Consider “QDQHVESGGGLVQEGGSLRLSCAASGSTFWPYAMGWSRQAPGKERELVARINSGGNTNYADSVKGLFTISRDNAKNTVYLQMNSLKPEDTAVYYCAVRSLYEPRVYYRCVVGDGNYWGQGTQVTVSS”, for which the “polyreactivity (PSR sort gate)” value was “low polyreactivity”.
As for “QDQHVESGGGLVQEGGSLRLSCASSSSTFEYYAMGWYRQPPGKERELVATISIDGRTNYADSVKGRFTISRDNAKNTVYLQMNSLKPEDTAVYYCAARPYWRHRYDYWVQGTQVTVSS”, the “polyreactivity (PSR sort gate)” value is recorded as “low polyreactivity”.
As to “QDQHVESGGGVVQARGSLRLICDASGFTIQRSAMGWYRQAPGKERELVAAISSGGSTYYADSVKGRFTFSRDNAKNTVYLQMNSLKPEDTAVYYCAARPIPRYYGKFWRVDYWGQGTQVTVSS”, the “polyreactivity (PSR sort gate)” value is recorded as “high polyreactivity”.
As for “QDQHVESGRGLVQAGGSLRLSCAASGLIFPRNAMGWYRQAPGKERELVAVISRSGTSTYYADSVKGRFTISRDNAKNTVYLQMNSLKPEDTAVYYCAAYSRRGSSLRGRYGYWGQGTQVTVSS”, the “polyreactivity (PSR sort gate)” value is “high polyreactivity”.
Regarding “QDQHVESGVGLVQEGGSLPLSCASSAFIIVKYAMGWYRKAPGKERELVAAITSGGSTSYADSVKGRFTISRDNAKNTVYLQMNRLKPEDTAVYYCAASTTAYAYVNYGYWGQGTQVTVSS”, the “polyreactivity (PSR sort gate)” value is recorded as “low polyreactivity”.
As to “QDQHVETGGRLVHAGCSLRISCAASGSTFTGYAMGWNRPPPGKERELVAAISSGGSTYYADSVKGRFTISRDNPKNTVYLQMNSLTPEDTAVYDCAAAPRWKASRLYYWGQCTQVTVSS”, the “polyreactivity (PSR sort gate)” value is “high polyreactivity”.
In the case of “QDQIVESGGGLVQAGGSLRLTCAASGLNIYDNMGWYRQAPGKERELVAAISSSGGSTSYADSVKGRFTISRDNAKNTFYVQMNSLKPEDTAVYYCAADSYPAYLGFVGFDYWGQGTQVTVSS” it was “low polyreactivity”; in that of “QDQLEESALGLVQAGGSLRLICAASGRTFQYYTMAWYRPAPAKEREFVAAIRDSGGSTYYADSVKGRFTISRDNAKNTVYLQMNSLKPEDTAVYYCNKVPNGPSNYDYWGQGTQVTVSS”, “high polyreactivity”; in that of “QDQLEESGGGLRQAGGSLRLTCAASGIIFPYYTKGLYRQATGKEKLVAAISSRGGSTYYADSVKGRFTISRDNAKNTVYLQMTSLKPEDTAVYYCAAKNVYHDDFWGQGTQVTVSS”, “high polyreactivity”.
In the case of “QDQLEESGGGLVQAGGSLRLSCAASGNIFPRNAMGWYRQAAGKERELVAAISASGDNTYYADSVKGRFTISRDNAKNTVYLQMNSLKPEDTAVYYCSAGTFYESIQPYESVAYYYWGQGTQVTVSS” it was “low polyreactivity”.
In the case of “QDQLEESGGGLVQAGGSLRLSCAASGSTFLVYAMGWYRQAPGKEREFVAAISWSGGSTFYADSVKGRFTISRDNAKNTVYLQMNSLKPEDTAVYYCAARQAGYSGRKLYYWGQGTQVTVSS” it was “low polyreactivity”; in that of “QDQLEESGGGLVQAGGSLRLSSAASGGTLYLYDMGWYRQAPGKERELVAAISYNGGSTYADSVKGRFTISRDNAKNTFYLQMNSLNPEDSAVYYCAADRPPRGLGGYWGQGTLVTVSS”, “low polyreactivity”; in that of “QDQLEETGGGLVHAGGSLRLSCAASGRTFVVYDMGWYRQAPGKERELVAGIRWRGGSTYYADSVKGRFTISRDNAKNSVYLQMNSLKPVDTAVYYCAADVYLVKYDYWGQGTQVTVSS”, “low polyreactivity”.
Regarding “QDQLGDSGGGLVQAGGSLSLSCAASGFIFYRYAMGWYRQAPGKERELVAAISGRGGSTYYADSVKGRFTISRDNAKNTVYLQMNSLKPEDTAVYYCATKPRSDSYGNYDYWGQGTQVTVSS”, the “polyreactivity (PSR sort gate)” value is “high polyreactivity”.
On to “QDQLGESGGGLVQAGGSLRLSCAASGLTFYFYAMGWYRPAPGKEREFVATISFSGGSTYYADSVKGRFTISRDNAKNTVYIQMNSLKPEDTAVYYCNAESDYYWYPYNYWGQGTQVTVSS”, for which the “polyreactivity (PSR sort gate)” value is “low polyreactivity”.
On to “QDQLVASGGGLVQAGGSSRLSCAASGRTFWSNAMGWYRQAPGKERELVAVITSSGGRTYYADSVKGRFTISRDNAKNTVYLQMNSLKPEDTAVYYCNVVCSPSLGVRTKYGYWGQGTHVTVSS”, for which the “polyreactivity (PSR sort gate)” value is “high polyreactivity”.
As for “QDQLVDSGGGFVQAGGSLSLSCAASRRTFLYYAMGWYRQAPGKERELVAAIRRGSSTYYADSVKGRFTISRDNAKNNGFLQLISLIAADTAVYYCAAEFVNGPPYGAYDYWGQGTQVTVSS”, the “polyreactivity (PSR sort gate)” value was “high polyreactivity”.
Consider “QDQLVDSGGGIVQAGGILSYSCDPSGSNVRYNAMGWYRQAPGKERELVAGIRGSGGITYYADSVKGRFTISRDNAKNTVYLQMNSLKPEDSAVYYCAADVVVCSYQEDHSWGQGTQVTESS”, for which the “polyreactivity (PSR sort gate)” value is reported as “low polyreactivity”.
For “QDQLVDSGGGLLQAGGSLRLSCAASGSMLSTYAMGWYRQATGKERELVASISSIAGSTYYADSVKGRFTISRDNAMNTVYLQLNILKPEDNAVYYCNKVYGGGSYDYWGQGTQVTVSS” the value was “low polyreactivity”; for “QDQLVDSGGGLVQAGASLRISSATSGRILWEYAMGSYRQAPGKERQLVAAITISDGSTYYADSVKGRFTISRDNAKNTVYLQMNSLNPEDTEVYYCAADSYDYTPAYLFSYKYYYWGQGTQVTVSS”, “low polyreactivity”.
In the case of “QDQLVDSGGGLVQAGGRLRLSCAASGLTLGSYAMGWSRQAPGQVRELVAAITRGGRSNYADSVKGRFSISRDNAKNTVYLQMYSLKPEDTAVYYCYADGPGYAAKYYWIYDYWGQGTQVTVSS” it was “low polyreactivity”.
In the case of “QDQLVDSGGGLVQAGGSLRLSCAASGFTLAYNTMGWYRQAPGKERELVASITSSGSSTYYADSEKGRFTITRDNGKYNVYLEMNSLKPEDTAVYYFNKVRPRKFWDYYYWGQGTQVTVSS” it was “high polyreactivity”.
